Drawing on patent publication US20170014503A1, this text covers IC50 of 2F5 mAb against TND-669S Env-pseudovirus after pre-absorption with 0.3 µM peptide for one molecule.

Where no end group is shown, it is not given here.

For this assay, the target named is 2F5 mAb. Description: cell-based or functional assay.

QQEKNEQELLELDKWASLWN (not fully specified) [SP62 peptide gp41 652-671, biotinylated] yielded an IC50 of 2F5 mAb against TND-669S Env-pseudovirus after pre-absorption with 0.3 µM peptide of 0.911.
